B1: TOX high mobility group box family member 3, residues 256 to 323; numbered along this chain, O15405 (parent)
chain: QKPVSAYALFFRDTQAAIKGQNPNATFGEVSKIVASMWDSLGEEQKQVYKRKTEAAKKEYLKALAAYR

Variants of: B1
Experiment: abundance fitness (aPCA) (normalised: wild type 0, dead -1); higher = more abundant; growth selection in yeast, the domain comes from the species named
Conditions: Homo sapiens

Abundance fitness, by site and new letter:
S31: Y -0.162, P -1, K 0.116, G -0.224, D -0.105, N -0.213, I -0.583, Q -0.063, E 0.015, H -0.265, L -0.637, T -0.118, R -0.062, C -0.163, W -0.696, F -0.664
G28: T -0.028, N 0.117, Q -0.159, H -0.026, Y -0.5, R 0.118, E 0.175, C -0.046, I -0.076, D 0.098, A -0.096, V -0.12, S 0.013, W -0.175, M -0.179, K -0.027, P 0.05
F27: W -0.129, A 0.249, T 0.098, I -0.071, S 0.154, Y 0.029, E 0.162, C -0.188, V 0.004, R 0.077, K 0.258, L 0.051, N 0.295, D 0.133, Q 0.093, G -0.071, H 0.182
K32: M -0.198, Y -0.662, L -0.376, A -0.048, H -0.286, S -0.107, W -0.455, C -0.289, P -0.966, T -0.055, I -0.416, R -0.045, D -0.078, Q -0.337, N 0.214, E -0.167
T26: D 0.043, A -0.25, V -0.845, Y -0.957, P -0.332, R -0.266, H -0.161, C -0.275, G -0.208, I -1.01, N 0.03, W -0.811, M -0.862, L -0.544, Q -0.217, S 0.051
I33: C -0.324, L -0.016, T 0.021, G -0.402, A -0.104, V -0.159, D -0.771, H -0.324, Y -0.174, P -1.01, M 0.101, S -0.267, R -0.134, E -0.131, K -0.01, N -0.329, F -0.5, Q -0.122, W -0.507
A35: D -0.275, I -0.123, G -0.122, H 0.001, E -0.015, F -0.375, C -0.275
V34: M -0.443, D -0.541, N -0.655, S -0.638, R -1.01, G -0.358, Q -0.954, C -0.137, I -0.149, W -0.92, T -0.444, K -0.922, A -0.012, L -0.529, F -0.956, P -0.689, E -0.963, H -1.06, Y -0.974
A25: T -0.363, R -0.088, W -0.492, V -0.076, S -0.287, Q -0.328, Y -0.058, P -0.874
E29: R -0.558, N -0.543, D -0.174, H -0.501, S -0.341, L -0.832, K -0.534, P -0.802, W -0.158, V -0.618, M -0.564, T -0.495, F -0.431, A -0.326, G -0.959, C -0.643, Y -0.372
V30: P -0.776, R -0.43, S -0.635, L -0.119, W -0.319, G -1.04, K -0.702, H -0.823, C -0.309, A -0.896, M -0.162, I 0.014, E -0.453, T -0.342, Y -0.811
